Source: patent US20210338779A1, “THERAPEUTIC USE OF GLUCAGON AND COMBINATION INCLUDING THE SAME” (HANMI PHARM. CO., LTD, priority 2018, published 2021)
Positions of bridges follow the written chain, without caps; N, C: chain ends. Non-standard residues stand in square brackets, D forms with d. No end group written: not given here. Aib = CC(C)(N)C(=O)O

system: not given; assay: not given; conditions: in vivo; cited from earlier work

Row | Molecule | side-effects
1 | Contrave | cardiovascular side-effects

same assay, conditions: reported; cited from earlier work

Row | Molecule | side-effects
2 | Cc1c(C(=O)NN2CCCCC2)nn(-c2ccc(Cl)cc2Cl)c1-c1ccc(Cl)cc1 [Rimonabant] | side-effect of central nervous system disorder
3 | CC(C)CC(N(C)C)C1(c2ccc(Cl)cc2)CCC1 (stereo not drawn) [Sibutramine] | cardiovascular side-effects

same assay, conditions: when taken for one year; cited from earlier work

Row | Molecule | weight loss
4 | CCCCCCCCCCC[C@@H](C[C@@H]1OC(=O)[C@H]1CCCCCC)OC(=O)[C@H](CC(C)C)NC=O [Orlistat] | about 4 kg

target: human glucagon receptor (human, UniProt P47871 26-477); assay: cell-based or functional assay; conditions: not given
Sequence (P47871 26-477): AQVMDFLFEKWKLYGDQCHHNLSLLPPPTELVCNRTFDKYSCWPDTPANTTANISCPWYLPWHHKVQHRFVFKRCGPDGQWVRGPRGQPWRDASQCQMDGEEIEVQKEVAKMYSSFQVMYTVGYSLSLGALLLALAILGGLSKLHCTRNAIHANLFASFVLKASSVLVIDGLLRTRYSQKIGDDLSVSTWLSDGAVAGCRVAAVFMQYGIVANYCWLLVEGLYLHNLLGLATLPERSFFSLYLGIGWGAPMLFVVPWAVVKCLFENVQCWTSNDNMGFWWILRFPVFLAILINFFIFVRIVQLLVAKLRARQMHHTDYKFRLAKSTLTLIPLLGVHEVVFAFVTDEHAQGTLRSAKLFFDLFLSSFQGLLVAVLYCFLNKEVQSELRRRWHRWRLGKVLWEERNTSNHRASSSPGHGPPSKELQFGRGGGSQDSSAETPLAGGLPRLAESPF

Row | Molecule | in vitro activity (%, relative to SEQ ID NO: 1); cAMP assay, from EC50
5 | Y[Aib]QGTFTSDYSKYLDEKRCKEFVQWLMNT (lactam 16-20) [glucagon derivative of SEQ ID NO: 22] | 148%
6 | Y[Aib]QGTFTSDYSKCLDEKRAKEFVQWLMNT (lactam 16-20) [glucagon derivative of SEQ ID NO: 24] | 58%
7 | HSQGTFTSDYSKYLDSCEAQDFVQWLMNT [glucagon derivative of SEQ ID NO: 5] | 0.3%
8 | Y[Aib]QGTFTSDYSKYCDERRAKEFVQWLMNT (lactam 16-20) [glucagon derivative of SEQ ID NO: 35] | 17.7%
9 | Y[Aib]QGTFTSDYSKYLDEKRAKCFVQWLMNT (lactam 16-20) [glucagon derivative of SEQ ID NO: 25] | 46.9%
10 | Y[Aib]QGTFTSDYSKYLDEKCAKEFVQWLMNT [glucagon derivative of SEQ ID NO: 11] | 4.6%
11 | Y[Aib]QGTFTSDYSKYLCEKRAQDFVVWLMNT [glucagon derivative of SEQ ID NO: 15] | 1.1%
12 | SQGTFTSDYSKYLDECRAKEFVQWLMNT (lactam 15-19) [glucagon derivative of SEQ ID NO: 32] | 0.7%
13 | Y[Aib]QGTFTSDYSKYLDECRAKEFVQWLMNT (lactam 16-20) [glucagon derivative of SEQ ID NO: 20] | 300%
14 | W[Aib]QGTFTSDYSKCLDERRAKDFVQWLMNT (lactam 16-20) [glucagon derivative of SEQ ID NO: 30] | 0.3%
15 | Y[Aib]QGTFTSDYSKYLDSRRACDFRLWLMNT [glucagon derivative of SEQ ID NO: 18] | < 0.1%
16 | Y[Aib]QGTFTSDYSKYLDSCDAQDFVVWLINT [glucagon derivative of SEQ ID NO: 9] | < 0.1%
17 | Y[Aib]QGTFTSDYSKYLDCVRAQDFVQWLMRT [glucagon derivative of SEQ ID NO: 17] | 23.2%
18 | Y[Aib]QGTFCSDYSKYLDERRAKEFVQWLMNT (lactam 16-20) [glucagon derivative of SEQ ID NO: 38] | 167%
19 | Y[Aib]QGTFCSDYSKYLDERRAKDFVQWLMNT (lactam 16-20) [glucagon derivative of SEQ ID NO: 41] | 45.2%
20 | Y[Aib]QGTFTSDYSKYLDEKCAKEFVQWLMNT (lactam 16-20) [glucagon derivative of SEQ ID NO: 21] | 57.8%
21 | HSQGTFTSDYSKYLDSCEADDFVQWLMNT [glucagon derivative of SEQ ID NO: 6] | < 0.1%
22 | Y[Aib]QGTFVSDYSKYLDECRAKDFVQWLMNT (lactam 16-20) [glucagon derivative of SEQ ID NO: 27] | 93.6%
23 | HSQGTFTSDYSKYLDCDRAQDFVQWLMNT [glucagon derivative of SEQ ID NO: 2] | 0.6%
24 | Y[Aib]QGTFTSDYSKYLDEKRAKEFVQWLMNTC (lactam 16-20) [glucagon derivative of SEQ ID NO: 12] | 56.3%
25 | Y[Aib]QGTFTSDYSKYLDSCDADDFVVWLINT [glucagon derivative of SEQ ID NO: 10] | < 0.1%

Row | Molecule | in vitro activity (%, relative to SEQ ID NO: 1); cAMP assay, from EC50
26 | Y[Aib]QGTFTSDYSKYLCEKRAKEFVQWLMNT (lactam 16-20) [glucagon derivative of SEQ ID NO: 19] | 12.1%
27 | Y[Aib]QGTFTSDYSKYLDCKRAKEFVQWLMNT (lactam 17-21) [glucagon derivative of SEQ ID NO: 31] | 6.3%
28 | Y[Aib]QGTFTSDCSKYLDSRRAQDFVQWLMNT [glucagon derivative of SEQ ID NO: 43] | 1.6%
29 | W[Aib]QGTFVSDYSKYLDECRAKDFVQWLMNT (lactam 16-20) [glucagon derivative of SEQ ID NO: 28] | < 0.1%
30 | YXQGTFTSDYSKYLDSRRAQDFVQWLMNTC (X at position 2 = aminoisobutyric acid (Aib)) [glucagon derivative of SEQ ID NO: 44] | 75.4%
31 | Y[Aib]QGTFTSDYSKYLDSCDAQDFVQWLINT [glucagon derivative of SEQ ID NO: 8] | < 0.1%
32 | Y[Aib]QGTFVSDCSKYLDERRAKDFVQWLMNT (lactam 16-20) [glucagon derivative of SEQ ID NO: 39] | 3.7%
33 | Y[Aib]QGTFTSDYSKYCDEKRAKEFVQWLMNT (lactam 16-20) [glucagon derivative of SEQ ID NO: 23] | 76.8%
34 | HSQGTFTSDYSKYLDSCDAQDFVQWLMNT [glucagon derivative of SEQ ID NO: 4] | < 0.1%
35 | Y[Aib]QGTFVSDYSKYLDERRAKDFVQWLMNTC (lactam 16-20) [glucagon derivative of SEQ ID NO: 40] | 40.8%
36 | HSQGTFTSDYSKYLDCERAQDFVQWLMNT [glucagon derivative of SEQ ID NO: 3] | 6.1%
37 | W[Aib]QGTFTSDYSKYLDECRAKDFVQWLMNT (lactam 16-20) [glucagon derivative of SEQ ID NO: 26] | 1%
38 | Y[Aib]QGTFCSDYSKYLDSRRAQDFVQWLMNT [glucagon derivative of SEQ ID NO: 42] | 37.9%
39 | YXQGTFTSDYSKYLDSRRAQDFVQWLMNT (X at position 2 = aminoisobutyric acid (Aib)) [glucagon derivative of SEQ ID NO: 33] | 108%
40 | W[Aib]QGTFTSDYSKYCDERRAKEFVQWLMNT (lactam 16-20) [glucagon derivative of SEQ ID NO: 34] | 0.2%
41 | Y[Aib]QGTFTSDYSKCLDERRAKDFVQWLMNT (lactam 16-20) [glucagon derivative of SEQ ID NO: 29] | 61.3%
42 | YSQGTFTSDYSKYLDSCEADDFVQWLMNT [glucagon derivative of SEQ ID NO: 7] | < 0.1%
43 | Y[Aib]QGTFTSDYSKYLDCKRAKEFVQWLMNT [glucagon derivative of SEQ ID NO: 14] | 18.1%
44 | Y[Aib]QGTFTSDCSKYLDERRAKEFVQWLMNT (lactam 16-20) [glucagon derivative of SEQ ID NO: 36] | 9.9%
45 | Y[Aib]QGTFTSDYSKYLDCRRAQVFVQWLMRT [glucagon derivative of SEQ ID NO: 16] | 4.2%
